Assay [1] concerns the target T1, cell surface expressed hepsin in LnCap-34 cells (Homo sapiens, UniProt P05981).
T1 construct: expressed in transfected cells; host or cells: LnCaP-34 cells
In words: Pro-MSP activation by cell surface expressed hepsin in LnCap-34 cells. It is filed as cell-based. Conditions: 1 μM inhibitor, 15 minutes preincubation, 125I-pro-MSP 25 μg/ml, 3 hours, 37° C. The procedure:
Confluent LnCap-34 cells cultured in 24-well plates were washed with serum-free RPMI-1640 medium and were incubated either alone or with different anti-hepsin inhibitors (1 μM of anti-hepsin antibody Fab25/1 μM of KD1/1 μM of Ac-KQLR-cmk (‘KLQR” disclosed as SEQ ID NO:10)) in serum-free RPMI-1640 medium for 15 minutes at 37° C. prior to addition of 125I-labeled pro-MSP (25 μg/ml). After incubation for 3 hours at 37° C., aliquots were removed and analyzed by SDS-PAGE (4-20% gradient gel) (Invitrogen, Carlsbad, Calif.) followed by exposure to X-ray films.

Another assay concerns bone marrow macrophages. In words: Inhibition of nitric oxide (NO) synthesis in bone marrow macrophages. In kind it is cell-based, mouse. Conditions: pro-MSP 10 ng/ml mixed with hepsin 1 nM and Fab25 500 nM, 24 hours, LPS. The procedure:
Inhibition of NO synthesis by mature MSP: Bone marrow cells obtained from collected mouse femurs were pipetted to a single-cell suspension and then spun down. Red blood cells were lysed by incubation with erythrocyte lysis buffer for 5 minutes at room temperature. Cells were then suspended in macrophage differentiation medium (DMEM with glutamine containing 10% FBS, Pen/Strep and 50 ng/ml recombinant mCSF-1). Cells were then plated onto sterile 24-well non-tissue culture dishes. Medium was changed the next day and subsequently every 2 days. After 6 days in culture, the macrophages were mature and these mature cells were washed in serum-free DMEM and further incubated for 2 hours. Different reactions (total volume 300 μL) as indicated in the figure consisting of recombinant MSP (10 ng/ml), pro-MSP (10 ng/ml), hepsin (1 nM) and Fab25 (500 nM) were added to the respective wells and cultured for 24 hours at 37° C. in a tissue culture incubator. NO production was quantified using Griess reaction (Molecular Probes) according to manufacturer's recommendation.

In another assay the test system is peritoneal macrophages. The assay is described as follows: Peritoneal macrophage chemotaxis assay. In kind it is cell-based, mouse. Conditions: pre-treatment with inhibitor. As for the experimental part:
Peritoneal macrophage chemotaxis and morphology change assay: Murine peritoneal resident macrophages were obtained from C57BL/6 mice by washing the peritoneal cavity with 15 ml per mouse of serum-free RPMI-1640 medium. Cells were washed and resuspended in RPMI-1640 medium containing 25 mM Hepes at a concentration of 1×10^6 cells·mL^−1. The macrophage chemotaxis assay was performed using a QCM chemotaxis assay kit with a pore size of 5 μm (Millipore). One hundred microliters of the peritoneal macrophage suspension (i.e. 10^5 cells) were added to the upper wells of the Chemotaxis cells. The bottom wells were filled with RPMI-1640 medium containing purified pro-MSP either alone or hepsin-treated at 37 C for 2 hours. The recombinant active form of human MSP (R&D Systems) was used as a positive control. After incubation at 37 C for 4 hours, the cells on the upper surface of the membrane were wiped off with a cotton swab and the migrated cells were detached using detachment buffer as per manufacturer's recommendations. Aliquots from different wells were incubated with a mixture of lysis buffer and CYPRO dye for 15 minutes. Migration was quantified by measuring the fluorescence using a microplate reader (Spectramax-M5, Molecular devices, Sunnyvale, Calif.) at an excitation wavelength of 480 nm and emission wavelength of 520 nm.

T1 sequence (P05981 whole entry): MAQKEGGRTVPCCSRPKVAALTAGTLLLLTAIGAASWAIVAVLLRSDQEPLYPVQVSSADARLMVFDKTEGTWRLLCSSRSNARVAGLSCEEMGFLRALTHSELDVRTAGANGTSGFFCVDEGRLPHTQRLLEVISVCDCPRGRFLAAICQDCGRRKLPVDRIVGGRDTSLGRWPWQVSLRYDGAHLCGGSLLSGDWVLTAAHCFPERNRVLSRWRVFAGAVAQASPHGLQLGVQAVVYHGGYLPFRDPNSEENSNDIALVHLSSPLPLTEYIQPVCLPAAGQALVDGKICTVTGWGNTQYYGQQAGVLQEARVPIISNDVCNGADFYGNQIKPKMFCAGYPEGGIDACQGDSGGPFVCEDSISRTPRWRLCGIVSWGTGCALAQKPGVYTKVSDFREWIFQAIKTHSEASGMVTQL

B1: Fab25: anti-hepsin antibody Fab that blocks hepsin activation of pro-MSP (antibody, V domains shown)
VH: EVQLVESGGGLVQPGGSLRLSCAASGFNFSYSYMHWVRQAPGKGLEWVASIYSYYGSTYYADSVKGRFTISADTSKNTAYLQMNSLRAEDTAVYYCARSDSWSYKSGYTQKIYSKGLDYWGQGTLVTVSS
VL: DIQMTQSPSSLSASVGDRVTITCRASQSVSSAVAWYQQKPGKAPKLLIYSASSKGVPSRFSGSRSGTDFTLTISSLQPEDFATYYCQQYYSSYYLLTFGQGTKVEIK
Consider B1, for which the “blocking of pro-MSP proteolytic cleavage by cell surface hepsin” value in assay [1] was “effectively blocked”. The “effect of anti-hepsin antibody on attenuation of NO production by hepsin-activated MSP” value is reported as “did not inhibit robust production of nitric oxide” in the assay on bone marrow macrophages and “completely inhibited” in the assay with bone marrow macrophages (listed as anti-hepsin antibody). Also, in the assay on peritoneal macrophages, the “effect of anti-hepsin inhibitor pre-treatment on migration of macrophages induced by hepsin-treated pro-MSP” value is “marked reduction”.

Source of the values: patent US8697386B2, “Methods and compositions for modulating hepsin activation of macrophage-stimulating protein” (Genentech, Inc., priority 2009, dated 2014).
